The values below come from patent US20140220040A1.

The experiment concerns the target Human LRP6-Fc (R&D Systems), recombinant human LRP6 containing the complete extracellular domain (human) (UniProt O75581). The experiment is described as follows: SPR (BIAcore), mAb captured on anti-mouse chip, Fc-antigen injected, 1:1 model. (In general: Surface plasmon resonance follows binding to a sensor surface in real time, without labels.)

Human LRP6-Fc (R&D Systems), recombinant human LRP6 containing the complete extracellular domain (human), sequence (O75581 20-1370 V1062I): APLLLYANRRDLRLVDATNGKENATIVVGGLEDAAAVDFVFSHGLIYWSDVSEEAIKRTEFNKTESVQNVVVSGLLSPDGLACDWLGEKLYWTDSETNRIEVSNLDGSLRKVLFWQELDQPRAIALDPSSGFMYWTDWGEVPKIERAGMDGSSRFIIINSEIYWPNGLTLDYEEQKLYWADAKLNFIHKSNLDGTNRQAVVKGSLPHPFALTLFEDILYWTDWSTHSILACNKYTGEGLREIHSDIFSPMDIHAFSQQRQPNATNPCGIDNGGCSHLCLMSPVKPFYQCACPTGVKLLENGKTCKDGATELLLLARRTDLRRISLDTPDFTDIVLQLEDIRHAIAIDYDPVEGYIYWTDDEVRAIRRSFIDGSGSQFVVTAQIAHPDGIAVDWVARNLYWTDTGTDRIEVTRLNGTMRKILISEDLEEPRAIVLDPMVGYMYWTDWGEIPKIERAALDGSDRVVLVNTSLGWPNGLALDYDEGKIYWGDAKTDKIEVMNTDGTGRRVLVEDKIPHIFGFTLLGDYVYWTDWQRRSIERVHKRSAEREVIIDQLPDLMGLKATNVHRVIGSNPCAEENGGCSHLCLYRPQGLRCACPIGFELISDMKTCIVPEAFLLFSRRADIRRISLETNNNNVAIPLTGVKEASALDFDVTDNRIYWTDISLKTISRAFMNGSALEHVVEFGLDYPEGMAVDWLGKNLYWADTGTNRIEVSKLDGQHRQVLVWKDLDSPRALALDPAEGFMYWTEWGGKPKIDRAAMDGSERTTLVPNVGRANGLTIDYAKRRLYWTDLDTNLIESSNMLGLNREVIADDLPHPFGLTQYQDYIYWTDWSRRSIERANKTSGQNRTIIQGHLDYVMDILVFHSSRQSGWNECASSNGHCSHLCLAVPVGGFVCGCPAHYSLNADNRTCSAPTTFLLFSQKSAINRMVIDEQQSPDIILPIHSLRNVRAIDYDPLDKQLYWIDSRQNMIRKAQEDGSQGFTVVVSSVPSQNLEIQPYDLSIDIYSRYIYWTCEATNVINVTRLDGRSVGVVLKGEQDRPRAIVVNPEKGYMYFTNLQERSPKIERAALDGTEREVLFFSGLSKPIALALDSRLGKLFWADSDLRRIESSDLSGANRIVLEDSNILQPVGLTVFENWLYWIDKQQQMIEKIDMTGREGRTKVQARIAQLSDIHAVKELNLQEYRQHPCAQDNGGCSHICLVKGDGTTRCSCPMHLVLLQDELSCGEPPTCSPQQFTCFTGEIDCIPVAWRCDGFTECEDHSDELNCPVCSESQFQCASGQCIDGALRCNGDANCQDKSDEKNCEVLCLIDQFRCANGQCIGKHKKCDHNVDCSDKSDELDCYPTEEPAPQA

B1: anti-LRP6 monoclonal antibody 993.9 (antibody, part only; not given: light chain, not determined, V domains shown, part only)
VH: DVQVQESGPGLVKPSQSLSLTCSVTGYSITSGYYWNWIRQFPGNKLEWMGYISYDGRNNYNPSLKNRISITRDTSKNQFFLKLNSVTTEDTATYYCARENSNYPYYYDYWGQGTTLTVSSAKT
With B1, the Kd came out at 2.05 nM, the koff was 5.7e-05 s⁻¹ and the kon is 28000 M⁻¹ s⁻¹.

B2: anti-LRP6 monoclonal antibody 995.5 (antibody, part only; not given: light chain, not determined, V domains shown, part only)
VH: RMKVLSLLYLLTAIPGILSDVQVQESGPGLVKPSQSLSLTCSVTGYSITSGYYWNWIRQFPGNKLEWMGYISYDGRNNYNPSLKNRISITRDTSKNQFFLKLNSVTTEDTATYYCARENSNYPYYYDYWGQGTTLTVSSAKT
As to B2, the Kd is 1.09 nM, the koff was 4.51e-05 s⁻¹ and the kon was 41400 M⁻¹ s⁻¹.

As usually defined, the Kd is a measure of binding affinity in units of concentration. The koff is the first-order rate constant of dissociation. The term kon denotes a measure of how fast the partners come together.
